What was measured:
[1] = target: cyclin A (human), P20248; test: competition; details: modification not given
[2] = target: cyclin D1 (human), P24385; test: competition; details: modification not given
Sequence of cyclin D1 (human), P24385 (P24385 whole entry): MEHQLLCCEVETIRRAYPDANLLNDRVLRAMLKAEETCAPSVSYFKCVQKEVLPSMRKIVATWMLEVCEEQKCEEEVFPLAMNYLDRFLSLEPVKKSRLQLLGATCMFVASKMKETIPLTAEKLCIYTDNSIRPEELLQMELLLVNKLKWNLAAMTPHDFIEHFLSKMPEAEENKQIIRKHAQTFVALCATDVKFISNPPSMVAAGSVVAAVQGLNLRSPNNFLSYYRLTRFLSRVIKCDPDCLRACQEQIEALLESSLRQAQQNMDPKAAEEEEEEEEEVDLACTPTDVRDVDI

Sequence of cyclin A (human), P20248 (P20248 whole entry): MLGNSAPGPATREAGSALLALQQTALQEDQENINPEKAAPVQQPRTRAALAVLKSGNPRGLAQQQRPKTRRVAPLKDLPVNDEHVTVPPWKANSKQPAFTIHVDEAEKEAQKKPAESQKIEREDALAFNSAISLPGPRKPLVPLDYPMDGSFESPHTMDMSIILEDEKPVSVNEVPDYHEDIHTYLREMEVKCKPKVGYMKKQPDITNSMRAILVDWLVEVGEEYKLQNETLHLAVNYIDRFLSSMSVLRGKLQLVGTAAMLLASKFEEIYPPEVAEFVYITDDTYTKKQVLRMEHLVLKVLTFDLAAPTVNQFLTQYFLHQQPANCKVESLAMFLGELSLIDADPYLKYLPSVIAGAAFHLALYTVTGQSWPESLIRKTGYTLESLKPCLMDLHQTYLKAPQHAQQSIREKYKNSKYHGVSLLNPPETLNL

IC50 [1] [µM] | IC50 [2] [µM] | Binder
8.15 | – | RRLNF [Ac-RRLNF-NH2]
– | > 100 | PVKRRLDL [E2F1 PVKRRLDL]
– | > 200 | HSKRRLFG
– | > 200 | HSKRRLDL

From US20050153894
